Laboratory results as given in paper doi:10.1101/2024.08.01.606258.

Molecular target: avGFP [GFP: P42212]
Assay: SEC

- stoichiometry N: 2
Substance: avGFP (from UniProt P42212 1-237) (natural protein)
